Data: publication PMC12866752 (2025)

B1: recombinant ectodomain of human IFN-λ receptor 1 (hIFN-λR1) (receptor)
chain: RPRLAPPQNVTLLSQNFSVYLTWLPGLGNPQDVTYFVAYQSSPTRRRWREVEECAGTKELLCSMMCLKKQDLYNKFKGRVRTVSPSSKSPWVESEYLDYLFEVEPAPPVLVLTQTEEILSANATYQLPPCMPPLDLKYEVAFWKEGAGNKTLFPVTPHGQPVQITLQPAASEHHCLSARTIYTFSVPKYSKFSKPTCFLLEVPEANWA

How the values were obtained:
Assay in all cases: SPR
[1] = target: designed human interferon-λ3 variant hIFN-λ3-DE1, His-tagged (human, UniProt Q8IZI9)
[2] = target: B1
[3] = target: B1

Row | Binder | Kd [1] | koff [1] | koff [2] | Kd [3]
1 | B1 | 6.61 nM | 0.0244 s⁻¹ |  | 
2 | wild-type human interferon-λ3 (hIFN-λ3-WT), His-tagged (ligand) VPVARLRGALPDARGCHIAQFKSLSPQELQAFKRAKDALEESLLLKDCKCRSRLFPRTWDLRQLQVRERPVALEAELALTLKVLEATADTDPALGDVLDQPLHTLHHILSQLRACIQPQPTAGPRTRGRLHHWLHRLQEAPKKESPGCLEASVTFNLFRLLTRDLNCVASGDLCV |  |  | 0.0183 s⁻¹ | 7.67 nM
